# Measurements: US20140186359A1 (TORAY INDUSTRIES, published 2014)
# T1: human CAPRIN-1 expressed on the surface of human cancer cells (human, UniProt Q14444 2-709)
# T1 sequence: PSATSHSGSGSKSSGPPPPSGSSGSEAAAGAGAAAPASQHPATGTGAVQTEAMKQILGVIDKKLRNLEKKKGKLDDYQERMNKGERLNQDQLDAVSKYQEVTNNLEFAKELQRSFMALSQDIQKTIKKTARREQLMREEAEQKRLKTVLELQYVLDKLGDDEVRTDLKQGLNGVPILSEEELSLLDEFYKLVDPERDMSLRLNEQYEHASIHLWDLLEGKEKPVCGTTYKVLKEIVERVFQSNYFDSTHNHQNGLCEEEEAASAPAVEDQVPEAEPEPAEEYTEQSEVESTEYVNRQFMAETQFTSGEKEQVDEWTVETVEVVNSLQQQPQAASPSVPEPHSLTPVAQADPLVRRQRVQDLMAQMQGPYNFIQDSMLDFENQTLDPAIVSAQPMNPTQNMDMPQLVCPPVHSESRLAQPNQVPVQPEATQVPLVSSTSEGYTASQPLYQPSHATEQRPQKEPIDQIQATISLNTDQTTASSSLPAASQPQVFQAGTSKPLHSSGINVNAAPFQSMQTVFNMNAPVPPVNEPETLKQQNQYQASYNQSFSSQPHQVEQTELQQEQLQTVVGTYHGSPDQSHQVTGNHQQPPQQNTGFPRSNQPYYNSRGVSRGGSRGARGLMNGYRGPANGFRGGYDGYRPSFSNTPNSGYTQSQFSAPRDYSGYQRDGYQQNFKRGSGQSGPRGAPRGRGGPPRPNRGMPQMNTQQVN
# Molecular target: T1, human CAPRIN-1 expressed on the surface …
# Test: cell-based or functional assay
# Throughout, for ADCC cytotoxic activity (51Cr release) against A549: test concentration or dose not given here.
# Throughout, for ADCC cytotoxic activity (51Cr release) against Caki-1: test concentration or dose not given here.
# Throughout, for ADCC cytotoxic activity (51Cr release) against Caki-2: test concentration or dose not given here.
# Throughout, for ADCC cytotoxic activity (51Cr release) against DLD-1: test concentration or dose not given here.
# Throughout, for ADCC cytotoxic activity (51Cr release) against HCT-116: test concentration or dose not given here.
# Throughout, for ADCC cytotoxic activity (51Cr release) against MCF7: test concentration or dose not given here.
# Throughout, for ADCC cytotoxic activity (51Cr release) against MDA-MB-436: test concentration or dose not given here.
# Throughout, for ADCC cytotoxic activity (51Cr release) against MIAPaCa-2: test concentration or dose not given here.
# Throughout, for ADCC cytotoxic activity (51Cr release) against Panc-1: test concentration or dose not given here.
# Throughout, for ADCC cytotoxic activity (51Cr release) against QG56: test concentration or dose not given here.
Binder,ADCC cytotoxic activity (51Cr release) against A549 [%],ADCC cytotoxic activity (51Cr release) against Caki-1 [%],ADCC cytotoxic activity (51Cr release) against Caki-2 [%],ADCC cytotoxic activity (51Cr release) against DLD-1 [%],ADCC cytotoxic activity (51Cr release) against HCT-116 [%],ADCC cytotoxic activity (51Cr release) against MCF7 [%],ADCC cytotoxic activity (51Cr release) against MDA-MB-436 [%],ADCC cytotoxic activity (51Cr release) against MIAPaCa-2 [%],ADCC cytotoxic activity (51Cr release) against Panc-1 [%],ADCC cytotoxic activity (51Cr release) against QG56 [%]
"human-chicken chimeric monoclonal antibody #1 (antibody, V domains shown) VH: AVTLDESGGGLQTPGGALSLVCKASGFTFRSHSMFWVRQAPGKGLEYVAGIYGVGRSIRYGSAVKGRATMSRDNGQSTVRLQLNNLRAEDTATYYCAKSGYFSNSRYWDSGAYFIDAWGHGTEVIVS VL: ALTQPASVSANPGETVEITCSGGYSNYGWYQQKSPGSAPVTVIYYNDKRPSDIPSRFSGSKSGSTATLTITGVQAEDEAVYFCGGYDSSTDAGIFGAGTTLTV",≥ 12,≥ 14,≥ 34,≥ 15,≥ 19,≥ 30,≥ 18,≥ 28,≥ 18,≥ 10
"human-chicken chimeric monoclonal antibody #2 (antibody, V domains shown) VH: AVTLDESGGGLQTPGGALSLVCKASGFTFRSHSMFWVRQAPGKGLEYVAGIYGVGRSIRYGSAVKGRATMSRDNGQSTVRLQLNNLRAEDTGTYYCAKSGYFSNRRYWDSGAYFIDAWGHGTEVIVS VL: ALTQPASVSANLGGTVEITCSGGYSNYGWYQQKSPGSAPVTVIYYNDKRPSDIPSRFSGSKSGSTGTLTITGVRAEDEAVYYCGGYDSSTDAGIFGAGTTLTV",≥ 12,≥ 14,≥ 34,≥ 15,≥ 19,≥ 30,≥ 18,≥ 28,≥ 18,≥ 10
"human-chicken chimeric monoclonal antibody #3 (antibody, V domains shown) VH: AVTLDESGGGLQTPGGGLSLVCKGSGFTFSSFGMFWVRQAPGKGLEFVASISDNGRSTYYGSAVKGRATISRDDGQSTVRLQLNNLRAEDTGTYYCAKNAYVGRGCCFSYSIDAWGHGTEVIVS VL: ALTQPASVSVNPGETVKITCSGGGSSSDAYGWYQQKSPGSAPVTLIYNGSNRPSHIPSRFSGSTSGSTNTLTITGVQVEDEAIYFCGSTDTSTSVGIFGAGTTLTV",≥ 12,≥ 14,≥ 34,≥ 15,≥ 19,≥ 30,≥ 18,≥ 28,≥ 18,≥ 10
"human-chicken chimeric monoclonal antibody #4 (antibody, V domains shown) VH: AVTLDESGGGLQTPGGAVSLVCKGSGFTFSSYGMGWVRQAPGKGLEYVAAIRKDGSTNYGPAVKGRATISRDNGQSTVRLQLSNLRAEDTATYYCAKRSHTGVNAAKIDAWGRGTEVIVS VL: ALTQPASVSANPGETVKITCSGASHNYGWFQQKSPGSAPVTVIYSNDKRPSDIPSRFSGSKSGSTATLTITGVQADDEAVYFCGGYNIYGPTFGAGTTLTV",≥ 12,≥ 14,≥ 34,≥ 15,≥ 19,≥ 30,≥ 18,≥ 28,≥ 18,≥ 10
"human-mouse chimeric comparative monoclonal antibody 2 (antibody, human IgG1, kappa) heavy: not shown light: AVLRCSRGLLVIWISDIQLTQSPSSLAVTAGEKVTMSCKSSQSLLWSVNQKNYLSWYQQKQRQPPKLLIYGASIRESWVPDRFTGSGSGTDFTLTISNVHAEDLAVYYCQHNHGSFLPSRSEQVPSWRSNNRTVAAPSVFIFPPSDEQLKSGTASVVCLLNNFYPREAKVQWKVDNALQSGNSQESVTEQDSKDSTYSLSSTLTLSKADYEKHKVYACEVTHQGLSSPVTKSFNRGEC",,,< 8,,< 3,< 5,,7,,< 5
"human-mouse chimeric comparative monoclonal antibody 3 (antibody, human IgG1, kappa) heavy: not shown light: RTTSHMDSDIQLTQSPASLSASVGETVTITCRASGNIHNYLAWYQQKQGKSPQLLVYNAKTLADGVPSRFSGSGSGTQYSLKINSLQPEDFGSYYCQHFWSTLTFGGGTKLEIKQSDTVAAPSVFIFPPSDEQLKSGTASVVCLLNNFYPREAKVQWKVDNALQSGNSQESVTEQDSKDSTYSLSSTLTLSKADYEKHKVYACEVTHQGLSSPVTKSFNRGEC",,,< 8,,< 3,< 5,,7,,< 5
"human-mouse chimeric comparative monoclonal antibody 1 (antibody, human IgG1, kappa) heavy: not shown light: DIQMTQSPASLSASVGETVTITCRASGNIHNYLAWYQQKQGKSPQLLVYNAKTLADGVPSRFSGSGSGTQYSLKINSLQPEDFGSYYCQHFWSTLTFGAGTKLELKRADAAPTVSNPYDTVAAPSVFIFPPSDEQLKSGTASVVCLLNNFYPREAKVQWKVDNALQSGNSQESVTEQDSKDSTYSLSSTLTLSKADYEKHKVYACEVTHQGLSSPVTKSFNRGEC",,,< 8,,< 3,< 5,,7,,< 5
"human-mouse chimeric monoclonal antibody #1 (antibody, V domains shown) VH: GPGLVQPSQSLSITCTVSGFSLTTYDLHWVRQSPGKGLEWLGVIWSGGSTDYNAAFISRLSISKDNSKSQVFFKMNSLQANDTAIYYCARNYGYSAWFAYWGQGTLVTVSA VL: DVLMTQTPLSLPVSLGDQASISCRSSQSIVHSNGNTYLEWYLQKPGQSPKLLIYKVSNRFSGVPDRFSGSGSGTDFTLKISRVEAEDLGVYYCFQGSHVPLTFGAGTKLELKR",,,≥ 34,,≥ 19,≥ 30,,≥ 28,,≥ 10
"human-mouse chimeric monoclonal antibody #2 (antibody, human IgG1, kappa, V domains shown) VH: GGGLVKPGGSLKLSCAASGFTFSSYGMSWVRQTPEKRLEWVATISSGGSYTYYPDSVKGRFTISRDNAKNTLYLQMSSLRSEDTAMYYCASLASYYFDYWGQGTTLTVSS VL: GARCDVQMIQSPSSLSASLGDIVTMTCQASQGTSINLNWFQQKPGKAPKLLIYGASSLEDGVPSRFSGSCFGTDFTLTISSLEDEDMATYFCLQHSYLPPLTFGAGTKLELKR",,,≥ 18,,≥ 18,≥ 32,,≥ 32,,≥ 10
"human-mouse chimeric monoclonal antibody #3 (antibody, human IgG1, kappa, V domains shown) VH: GGGLVKPGGSLKLSCAASGFTFSSYGMSWVRQTPEKRLEWVATISSGGSYTYYPDSVKGRFTISRDNAKNTLYLQMSSLRSEDTAMYYCASLASYYFDYWGQGTTLTVSS VL: not shown",,,≥ 18,,≥ 18,≥ 32,,≥ 32,,≥ 10

# Same assay, conditions: not given
row,Binder,ADCC cytotoxic activity (51Cr release) against all other cancer cell lines listed [%]
1,"human-chicken chimeric monoclonal antibody #1 (antibody, V domains shown) VH: AVTLDESGGGLQTPGGALSLVCKASGFTFRSHSMFWVRQAPGKGLEYVAGIYGVGRSIRYGSAVKGRATMSRDNGQSTVRLQLNNLRAEDTATYYCAKSGYFSNSRYWDSGAYFIDAWGHGTEVIVS VL: ALTQPASVSANPGETVEITCSGGYSNYGWYQQKSPGSAPVTVIYYNDKRPSDIPSRFSGSKSGSTATLTITGVQAEDEAVYFCGGYDSSTDAGIFGAGTTLTV",≥ 10
2,"human-chicken chimeric monoclonal antibody #2 (antibody, V domains shown) VH: AVTLDESGGGLQTPGGALSLVCKASGFTFRSHSMFWVRQAPGKGLEYVAGIYGVGRSIRYGSAVKGRATMSRDNGQSTVRLQLNNLRAEDTGTYYCAKSGYFSNRRYWDSGAYFIDAWGHGTEVIVS VL: ALTQPASVSANLGGTVEITCSGGYSNYGWYQQKSPGSAPVTVIYYNDKRPSDIPSRFSGSKSGSTGTLTITGVRAEDEAVYYCGGYDSSTDAGIFGAGTTLTV",≥ 10
3,"human-chicken chimeric monoclonal antibody #3 (antibody, V domains shown) VH: AVTLDESGGGLQTPGGGLSLVCKGSGFTFSSFGMFWVRQAPGKGLEFVASISDNGRSTYYGSAVKGRATISRDDGQSTVRLQLNNLRAEDTGTYYCAKNAYVGRGCCFSYSIDAWGHGTEVIVS VL: ALTQPASVSVNPGETVKITCSGGGSSSDAYGWYQQKSPGSAPVTLIYNGSNRPSHIPSRFSGSTSGSTNTLTITGVQVEDEAIYFCGSTDTSTSVGIFGAGTTLTV",≥ 10
4,"human-chicken chimeric monoclonal antibody #4 (antibody, V domains shown) VH: AVTLDESGGGLQTPGGAVSLVCKGSGFTFSSYGMGWVRQAPGKGLEYVAAIRKDGSTNYGPAVKGRATISRDNGQSTVRLQLSNLRAEDTATYYCAKRSHTGVNAAKIDAWGRGTEVIVS VL: ALTQPASVSANPGETVKITCSGASHNYGWFQQKSPGSAPVTVIYSNDKRPSDIPSRFSGSKSGSTATLTITGVQADDEAVYFCGGYNIYGPTFGAGTTLTV",≥ 10
5,"human-mouse chimeric comparative monoclonal antibody 2 (antibody, human IgG1, kappa) heavy: not shown light: AVLRCSRGLLVIWISDIQLTQSPSSLAVTAGEKVTMSCKSSQSLLWSVNQKNYLSWYQQKQRQPPKLLIYGASIRESWVPDRFTGSGSGTDFTLTISNVHAEDLAVYYCQHNHGSFLPSRSEQVPSWRSNNRTVAAPSVFIFPPSDEQLKSGTASVVCLLNNFYPREAKVQWKVDNALQSGNSQESVTEQDSKDSTYSLSSTLTLSKADYEKHKVYACEVTHQGLSSPVTKSFNRGEC",< 4
6,"human-mouse chimeric comparative monoclonal antibody 3 (antibody, human IgG1, kappa) heavy: not shown light: RTTSHMDSDIQLTQSPASLSASVGETVTITCRASGNIHNYLAWYQQKQGKSPQLLVYNAKTLADGVPSRFSGSGSGTQYSLKINSLQPEDFGSYYCQHFWSTLTFGGGTKLEIKQSDTVAAPSVFIFPPSDEQLKSGTASVVCLLNNFYPREAKVQWKVDNALQSGNSQESVTEQDSKDSTYSLSSTLTLSKADYEKHKVYACEVTHQGLSSPVTKSFNRGEC",< 4
7,"human-mouse chimeric comparative monoclonal antibody 1 (antibody, human IgG1, kappa) heavy: not shown light: DIQMTQSPASLSASVGETVTITCRASGNIHNYLAWYQQKQGKSPQLLVYNAKTLADGVPSRFSGSGSGTQYSLKINSLQPEDFGSYYCQHFWSTLTFGAGTKLELKRADAAPTVSNPYDTVAAPSVFIFPPSDEQLKSGTASVVCLLNNFYPREAKVQWKVDNALQSGNSQESVTEQDSKDSTYSLSSTLTLSKADYEKHKVYACEVTHQGLSSPVTKSFNRGEC",< 4
8,"human-mouse chimeric monoclonal antibody #1 (antibody, V domains shown) VH: GPGLVQPSQSLSITCTVSGFSLTTYDLHWVRQSPGKGLEWLGVIWSGGSTDYNAAFISRLSISKDNSKSQVFFKMNSLQANDTAIYYCARNYGYSAWFAYWGQGTLVTVSA VL: DVLMTQTPLSLPVSLGDQASISCRSSQSIVHSNGNTYLEWYLQKPGQSPKLLIYKVSNRFSGVPDRFSGSGSGTDFTLKISRVEAEDLGVYYCFQGSHVPLTFGAGTKLELKR",≥ 10
9,"human-mouse chimeric monoclonal antibody #2 (antibody, human IgG1, kappa, V domains shown) VH: GGGLVKPGGSLKLSCAASGFTFSSYGMSWVRQTPEKRLEWVATISSGGSYTYYPDSVKGRFTISRDNAKNTLYLQMSSLRSEDTAMYYCASLASYYFDYWGQGTTLTVSS VL: GARCDVQMIQSPSSLSASLGDIVTMTCQASQGTSINLNWFQQKPGKAPKLLIYGASSLEDGVPSRFSGSCFGTDFTLTISSLEDEDMATYFCLQHSYLPPLTFGAGTKLELKR",≥ 10
10,"human-mouse chimeric monoclonal antibody #3 (antibody, human IgG1, kappa, V domains shown) VH: GGGLVKPGGSLKLSCAASGFTFSSYGMSWVRQTPEKRLEWVATISSGGSYTYYPDSVKGRFTISRDNAKNTLYLQMSSLRSEDTAMYYCASLASYYFDYWGQGTTLTVSS VL: not shown",≥ 10
